Reference: patent US20150203577A1 (Chugai, published 2015)

What was measured:
[1] = target: T1, mouse FcγRII extracellular domain, C-terminally His-tagged (mouse, UniProt P08101 30-210); experiment: SPR Biacore T200, KD ratio
T1 construct: the whole entry is named; also called mFcγRII; mFcgRII
T1 sequence: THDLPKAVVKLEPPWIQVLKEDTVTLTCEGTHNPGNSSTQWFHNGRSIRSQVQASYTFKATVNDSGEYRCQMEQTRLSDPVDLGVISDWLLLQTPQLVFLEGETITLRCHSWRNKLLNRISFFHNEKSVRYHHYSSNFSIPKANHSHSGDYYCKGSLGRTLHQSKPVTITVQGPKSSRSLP

[2] = target: T2, mouse FcγRIII extracellular domain, C-terminally His-tagged (mouse, UniProt P08508 31-215); experiment: SPR Biacore T200, KD ratio
T2 construct: the whole entry is named; also called mFcγRIII; mFcgRIII
T2 chain: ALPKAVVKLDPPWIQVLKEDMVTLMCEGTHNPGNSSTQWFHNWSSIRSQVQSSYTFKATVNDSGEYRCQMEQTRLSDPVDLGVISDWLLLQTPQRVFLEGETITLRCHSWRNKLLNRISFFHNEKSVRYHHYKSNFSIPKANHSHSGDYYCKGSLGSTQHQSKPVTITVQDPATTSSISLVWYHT

Binder | relative mFcγRII-binding activity (mIgG1 = 1) [1] | relative mFcγRIII-binding activity (mIgG1 = 1) [2]
H237-MB646/MRAL-k0 (antibody, mouse IgG1, kappa, copies: 2 + 2) heavy: QVQLQESGPGLVKPSETLSLTCAVSGHSISHDHAWSWVRQPPGEGLEWIGFISYSGITNYNPSLQGRVTISRDNSKNTLYLQMNSLRAEDTAVYYCARSLARTTAMDYWGEGTLVTVSSAKTTPPSVYPLAPGSAAQTNSMVTLGCLVKGYFPEPVTVTWNSGSLSSGVHTFPAVLQSDLYTLSSSVTVPSSTWPSETVTCNVAHPASSTKVDKKIVPRDCGCKPCICEPAEVEYVFIFPPKPKDVLTITLTPKVTCVVVDISKDDPEVQFSWFVDDVEVHTAQTQPREEQFNSTFRSVSELPIMHQDWLNGKEFKCRVNSAAFPAPIEKTISKTKGRPKAPQVYTIPPPKEQMAKDKVSLTCMITDFFPEDITVEWQWNGQPAENYKNTQPIMDTDGSYFVYSKLNVQKSNWEAGNTFTCSVLHEGLHNHHTEKSLSHSPGK light: not shown | 4.38 fold | 0.15 fold
H237-MB647/MRAL-k0 (antibody, mouse IgG1, kappa, copies: 2 + 2) heavy: QVQLQESGPGLVKPSETLSLTCAVSGHSISHDHAWSWVRQPPGEGLEWIGFISYSGITNYNPSLQGRVTISRDNSKNTLYLQMNSLRAEDTAVYYCARSLARTTAMDYWGEGTLVTVSSAKTTPPSVYPLAPGSAAQTNSMVTLGCLVKGYFPEPVTVTWNSGSLSSGVHTFPAVLQSDLYTLSSSVTVPSSTWPSETVTCNVAHPASSTKVDKKIVPRDCGCKPCICIPAEVEYVFIFPPKPKDVLTITLTPKVTCVVVDISKDDPEVQFSWFVDDVEVHTAQTQPREEQFNSTFRSVSELPIMHQDWLNGKEFKCRVNSAAFPAPIEKTISKTKGRPKAPQVYTIPPPKEQMAKDKVSLTCMITDFFPEDITVEWQWNGQPAENYKNTQPIMDTDGSYFVYSKLNVQKSNWEAGNTFTCSVLHEGLHNHHTEKSLSHSPGK light: not shown | 1.05 fold | 0.1 fold
H237-MB650/MRAL-k0 (antibody, mouse IgG1, kappa, copies: 2 + 2) heavy: QVQLQESGPGLVKPSETLSLTCAVSGHSISHDHAWSWVRQPPGEGLEWIGFISYSGITNYNPSLQGRVTISRDNSKNTLYLQMNSLRAEDTAVYYCARSLARTTAMDYWGEGTLVTVSSAKTTPPSVYPLAPGSAAQTNSMVTLGCLVKGYFPEPVTVTWNSGSLSSGVHTFPAVLQSDLYTLSSSVTVPSSTWPSETVTCNVAHPASSTKVDKKIVPRDCGCKPCICEAYEVEFVFIFPPKPKDVLTITLTPKVTCVVVDISKDDPEVQFSWFVDDVEVHTAQTQPREEQFNSTFRSVSELPIMHQDWLNGKEFKCRVNSAAFPAPIEKTISKTKGRPKAPQVYTIPPPKEQMAKDKVSLTCMITDFFPEDITVEWQWNGQPAENYKNTQPIMDTDGSYFVYSKLNVQKSNWEAGNTFTCSVLHEGLHNHHTEKSLSHSPGK light: not shown | 0.24 fold | 0.05 fold
H237-MB655/MRAL-k0 (antibody, mouse IgG1, kappa, copies: 2 + 2) heavy: QVQLQESGPGLVKPSETLSLTCAVSGHSISHDHAWSWVRQPPGEGLEWIGFISYSGITNYNPSLQGRVTISRDNSKNTLYLQMNSLRAEDTAVYYCARSLARTTAMDYWGEGTLVTVSSAKTTPPSVYPLAPGSAAQTNSMVTLGCLVKGYFPEPVTVTWNSGSLSSGVHTFPAVLQSDLYTLSSSVTVPSSTWPSETVTCNVAHPASSTKVDKKIVPRDCGCKPCICEPAEVEFVFIFPPKPKDVLTITLTPKVTCVVVDISKDDPEVQFSWFVDDVEVHTAQTQPREEQFNSTFRSVSELPIMHQDWLNGKEFKCRVNSAAFPAPIEKTISKTKGRPKAPQVYTIPPPKEQMAKDKVSLTCMITDFFPEDITVEWQWNGQPAENYKNTQPIMDTDGSYFVYSKLNVQKSNWEAGNTFTCSVLHEGLHNHHTEKSLSHSPGK light: not shown | 0.4 fold | 0.06 fold
H237-MB651/MRAL-k0 (antibody, mouse IgG1, kappa, copies: 2 + 2) heavy: QVQLQESGPGLVKPSETLSLTCAVSGHSISHDHAWSWVRQPPGEGLEWIGFISYSGITNYNPSLQGRVTISRDNSKNTLYLQMNSLRAEDTAVYYCARSLARTTAMDYWGEGTLVTVSSAKTTPPSVYPLAPGSAAQTNSMVTLGCLVKGYFPEPVTVTWNSGSLSSGVHTFPAVLQSDLYTLSSSVTVPSSTWPSETVTCNVAHPASSTKVDKKIVPRDCGCKPCICEDYEVEFVFIFPPKPKDVLTITLTPKVTCVVVDISKDDPEVQFSWFVDDVEVHTAQTQPREEQFNSTFRSVSELPIMHQDWLNGKEFKCRVNSAAFPAPIEKTISKTKGRPKAPQVYTIPPPKEQMAKDKVSLTCMITDFFPEDITVEWQWNGQPAENYKNTQPIMDTDGSYFVYSKLNVQKSNWEAGNTFTCSVLHEGLHNHHTEKSLSHSPGK light: not shown | 0.3 fold | 0.04 fold
H237-MB648/MRAL-k0 (antibody, mouse IgG1, kappa, copies: 2 + 2) heavy: QVQLQESGPGLVKPSETLSLTCAVSGHSISHDHAWSWVRQPPGEGLEWIGFISYSGITNYNPSLQGRVTISRDNSKNTLYLQMNSLRAEDTAVYYCARSLARTTAMDYWGEGTLVTVSSAKTTPPSVYPLAPGSAAQTNSMVTLGCLVKGYFPEPVTVTWNSGSLSSGVHTFPAVLQSDLYTLSSSVTVPSSTWPSETVTCNVAHPASSTKVDKKIVPRDCGCKPCICEPNEVEYVFIFPPKPKDVLTITLTPKVTCVVVDISKDDPEVQFSWFVDDVEVHTAQTQPREEQFNSTFRSVSELPIMHQDWLNGKEFKCRVNSAAFPAPIEKTISKTKGRPKAPQVYTIPPPKEQMAKDKVSLTCMITDFFPEDITVEWQWNGQPAENYKNTQPIMDTDGSYFVYSKLNVQKSNWEAGNTFTCSVLHEGLHNHHTEKSLSHSPGK light: not shown | 10.8 fold | 0.64 fold
H237-MB654/MRAL-k0 (antibody, mouse IgG1, kappa, copies: 2 + 2) heavy: QVQLQESGPGLVKPSETLSLTCAVSGHSISHDHAWSWVRQPPGEGLEWIGFISYSGITNYNPSLQGRVTISRDNSKNTLYLQMNSLRAEDTAVYYCARSLARTTAMDYWGEGTLVTVSSAKTTPPSVYPLAPGSAAQTNSMVTLGCLVKGYFPEPVTVTWNSGSLSSGVHTFPAVLQSDLYTLSSSVTVPSSTWPSETVTCNVAHPASSTKVDKKIVPRDCGCKPCICEVYEVEFVFIFPPKPKDVLTITLTPKVTCVVVDISKDDPEVQFSWFVDDVEVHTAQTQPREEQFNSTFRSVSELPIMHQDWLNGKEFKCRVNSAAFPAPIEKTISKTKGRPKAPQVYTIPPPKEQMAKDKVSLTCMITDFFPEDITVEWQWNGQPAENYKNTQPIMDTDGSYFVYSKLNVQKSNWEAGNTFTCSVLHEGLHNHHTEKSLSHSPGK light: not shown | 0.27 fold | 0.07 fold
H237-MB652/MRAL-k0 (antibody, mouse IgG1, kappa, copies: 2 + 2) heavy: QVQLQESGPGLVKPSETLSLTCAVSGHSISHDHAWSWVRQPPGEGLEWIGFISYSGITNYNPSLQGRVTISRDNSKNTLYLQMNSLRAEDTAVYYCARSLARTTAMDYWGEGTLVTVSSAKTTPPSVYPLAPGSAAQTNSMVTLGCLVKGYFPEPVTVTWNSGSLSSGVHTFPAVLQSDLYTLSSSVTVPSSTWPSETVTCNVAHPASSTKVDKKIVPRDCGCKPCICENYEVEFVFIFPPKPKDVLTITLTPKVTCVVVDISKDDPEVQFSWFVDDVEVHTAQTQPREEQFNSTFRSVSELPIMHQDWLNGKEFKCRVNSAAFPAPIEKTISKTKGRPKAPQVYTIPPPKEQMAKDKVSLTCMITDFFPEDITVEWQWNGQPAENYKNTQPIMDTDGSYFVYSKLNVQKSNWEAGNTFTCSVLHEGLHNHHTEKSLSHSPGK light: not shown | 0.28 fold | 0.06 fold
H237-MB653/MRAL-k0 (antibody, mouse IgG1, kappa, copies: 2 + 2) heavy: QVQLQESGPGLVKPSETLSLTCAVSGHSISHDHAWSWVRQPPGEGLEWIGFISYSGITNYNPSLQGRVTISRDNSKNTLYLQMNSLRAEDTAVYYCARSLARTTAMDYWGEGTLVTVSSAKTTPPSVYPLAPGSAAQTNSMVTLGCLVKGYFPEPVTVTWNSGSLSSGVHTFPAVLQSDLYTLSSSVTVPSSTWPSETVTCNVAHPASSTKVDKKIVPRDCGCKPCICETYEVEFVFIFPPKPKDVLTITLTPKVTCVVVDISKDDPEVQFSWFVDDVEVHTAQTQPREEQFNSTFRSVSELPIMHQDWLNGKEFKCRVNSAAFPAPIEKTISKTKGRPKAPQVYTIPPPKEQMAKDKVSLTCMITDFFPEDITVEWQWNGQPAENYKNTQPIMDTDGSYFVYSKLNVQKSNWEAGNTFTCSVLHEGLHNHHTEKSLSHSPGK light: not shown | 0.41 fold | 0.1 fold
H237-MB649/MRAL-k0 (antibody, mouse IgG1, kappa, copies: 2 + 2) heavy: QVQLQESGPGLVKPSETLSLTCAVSGHSISHDHAWSWVRQPPGEGLEWIGFISYSGITNYNPSLQGRVTISRDNSKNTLYLQMNSLRAEDTAVYYCARSLARTTAMDYWGEGTLVTVSSAKTTPPSVYPLAPGSAAQTNSMVTLGCLVKGYFPEPVTVTWNSGSLSSGVHTFPAVLQSDLYTLSSSVTVPSSTWPSETVTCNVAHPASSTKVDKKIVPRDCGCKPCICQPNEVEYVFIFPPKPKDVLTITLTPKVTCVVVDISKDDPEVQFSWFVDDVEVHTAQTQPREEQFNSTFRSVSELPIMHQDWLNGKEFKCRVNSAAFPAPIEKTISKTKGRPKAPQVYTIPPPKEQMAKDKVSLTCMITDFFPEDITVEWQWNGQPAENYKNTQPIMDTDGSYFVYSKLNVQKSNWEAGNTFTCSVLHEGLHNHHTEKSLSHSPGK light: not shown | 3.89 fold | 0.51 fold
